Measurements: patent publication US20250320281A1

Key:
[1] = target: HIV-1 92RW020 Env (pseudovirus) (HIV-1); assay: cell-based or functional assay
[2] = target: HIV-1 92TH021 Env (pseudovirus) (HIV-1); assay: cell-based or functional assay
[3] = target: HIV-1 92UG005 Env (pseudovirus) (HIV-1); assay: cell-based or functional assay
[4] = target: HIV-1 92UG024 Env (pseudovirus) (HIV-1); assay: cell-based or functional assay
[5] = target: HIV-1 93IN905 Env (pseudovirus) (HIV-1); assay: cell-based or functional assay
[6] = target: HIV-1 94UG103 Env (pseudovirus) (HIV-1); assay: cell-based or functional assay
[7] = target: HIV-1 APV6 Env (pseudovirus) (HIV-1); assay: cell-based or functional assay
[8] = target: HIV-1 CMU02 Env (pseudovirus) (HIV-1); assay: cell-based or functional assay
[9] = target: HIV-1 Env of isolate MGRM-C-001 (HIV-1); assay: cell-based or functional assay
[10] = target: HIV-1 Env of isolate MGRM-C-002 (HIV-1); assay: cell-based or functional assay
[11] = target: HIV-1 Env of isolate MGRM-C-004 (HIV-1); assay: cell-based or functional assay
[12] = target: HIV-1 Env of isolate MGRM-C-005 (HIV-1); assay: cell-based or functional assay
[13] = target: HIV-1 Env of isolate MGRM-C-006 (HIV-1); assay: cell-based or functional assay
[14] = target: HIV-1 Env of isolate MGRM-C-007 (HIV-1); assay: cell-based or functional assay
[15] = target: HIV-1 Env of isolate MGRM-C-008 (HIV-1); assay: cell-based or functional assay
[16] = target: HIV-1 Env of isolate MGRM-C-009 (HIV-1); assay: cell-based or functional assay
[17] = target: HIV-1 Env of isolate MGRM-C-010 (HIV-1); assay: cell-based or functional assay
[18] = target: HIV-1 Env of isolate MGRM-C-012 (HIV-1); assay: cell-based or functional assay
[19] = target: HIV-1 Env of isolate MGRM-C-013 (HIV-1); assay: cell-based or functional assay
[20] = target: HIV-1 Env of isolate MGRM-C-014 (HIV-1); assay: cell-based or functional assay
[21] = target: HIV-1 Env of isolate MGRM-C-015 (HIV-1); assay: cell-based or functional assay
[22] = target: HIV-1 Env of isolate MGRM-C-017 (HIV-1); assay: cell-based or functional assay
[23] = target: HIV-1 Env of isolate MGRM-C-019 (HIV-1); assay: cell-based or functional assay
[24] = target: HIV-1 Env of isolate MGRM-C-020 (HIV-1); assay: cell-based or functional assay
[25] = target: HIV-1 Env of isolate MGRM-C-022 (HIV-1); assay: cell-based or functional assay
[26] = target: HIV-1 Env of isolate MGRM-C-023 (HIV-1); assay: cell-based or functional assay
[27] = target: HIV-1 Env of isolate MGRM-C-024 (HIV-1); assay: cell-based or functional assay
[28] = target: HIV-1 Env of isolate MGRM-C-025 (HIV-1); assay: cell-based or functional assay
[29] = target: HIV-1 Env of pseudovirus isolate MGRM-G-001 (HIV-1); assay: cell-based or functional assay
[30] = target: HIV-1 Env of pseudovirus isolate MGRM-G-004 (HIV-1); assay: cell-based or functional assay
[31] = target: HIV-1 Env of pseudovirus isolate MGRM-G-006 (HIV-1); assay: cell-based or functional assay
[32] = target: HIV-1 Env of pseudovirus isolate MGRM-G-009 (HIV-1); assay: cell-based or functional assay
[33] = target: HIV-1 Env of pseudovirus isolate MGRM-G-011 (HIV-1); assay: cell-based or functional assay
[34] = target: HIV-1 Env of pseudovirus isolate MGRM-G-013 (HIV-1); assay: cell-based or functional assay
[35] = target: HIV-1 Env of pseudovirus isolate MGRM-G-014 (HIV-1); assay: cell-based or functional assay
[36] = target: HIV-1 Env of pseudovirus isolate MGRM-G-015 (HIV-1); assay: cell-based or functional assay
[37] = target: HIV-1 Env of pseudovirus isolate MGRM-G-016 (HIV-1); assay: cell-based or functional assay
[38] = target: HIV-1 Env of pseudovirus isolate MGRM-G-017 (HIV-1); assay: cell-based or functional assay
[39] = target: HIV-1 Env of pseudovirus isolate MGRM-G-019 (HIV-1); assay: cell-based or functional assay
[40] = target: HIV-1 Env of pseudovirus isolate MGRM-G-027 (HIV-1); assay: cell-based or functional assay
[41] = target: HIV-1 JRCSF Env (pseudovirus) (HIV-1) (UniProt P20871); assay: cell-based or functional assay
[42] = target: HIV-1 MGRM-A-010 Env (pseudovirus) (HIV-1); assay: cell-based or functional assay
[43] = target: HIV-1 MGRM-C-026 Env (pseudovirus) (HIV-1); assay: cell-based or functional assay
[44] = target: HIV-1 MGRM-C-027 Env (pseudovirus) (HIV-1); assay: cell-based or functional assay
[45] = target: HIV-1 MGRM-C-028 Env (pseudovirus) (HIV-1); assay: cell-based or functional assay
[46] = target: HIV-1 MGRM-D-018 Env (pseudovirus) (HIV-1); assay: cell-based or functional assay
[47] = target: HIV-1 NL43 Env (pseudovirus) (HIV-1); assay: cell-based or functional assay
[48] = target: envelope of aMLV pseudovirus (negative control); assay: cell-based or functional assay
WT JR-FL gp120 (HIV-1) = assay: ELISA, antigen-coated wells

5123_A06 (PGT-125) (antibody)
neutralization IC50 (pseudovirus) [1]: 0.0028 µg/mL | neutralization IC50 (pseudovirus) [2]: 0.0066 µg/mL | neutralization IC50 (pseudovirus) [3]: > 10 µg/mL | neutralization IC50 (pseudovirus) [4]: > 10 µg/mL | neutralization IC50 (pseudovirus) [5]: 0.0137 µg/mL | neutralization IC50 (pseudovirus) [6]: 0.0124 µg/mL | neutralization IC50 (pseudovirus) [7]: 0.0359 µg/mL | neutralization IC50 (pseudovirus) [8]: > 10 µg/mL | neutralization IC50 [9]: > 50 µg/mL | neutralization IC50 [10]: 0.008 µg/mL | neutralization IC50 [11]: 1.82 µg/mL | neutralization IC50 [12]: 2.09 µg/mL | neutralization IC50 [13]: 0.015 µg/mL | neutralization IC50 [14]: > 50 µg/mL | neutralization IC50 [15]: > 50 µg/mL | neutralization IC50 [16]: > 50 µg/mL | neutralization IC50 [17]: > 50 µg/mL | neutralization IC50 [18]: > 50 µg/mL | neutralization IC50 [19]: > 50 µg/mL | neutralization IC50 [20]: > 50 µg/mL | neutralization IC50 [21]: > 50 µg/mL | neutralization IC50 [22]: 2.36 µg/mL | neutralization IC50 [23]: 0.13 µg/mL | neutralization IC50 [24]: > 50 µg/mL | neutralization IC50 [25]: 1.23 µg/mL | neutralization IC50 [26]: 1.31 µg/mL | neutralization IC50 [27]: > 50 µg/mL | neutralization IC50 [28]: 42.5 µg/mL | IC50 (µg/mL), pseudovirus neutralization [29]: 0.033 µg/mL | IC50 (µg/mL), pseudovirus neutralization [30]: > 50 µg/mL | IC50 (µg/mL), pseudovirus neutralization [31]: > 50 µg/mL | IC50 (µg/mL), pseudovirus neutralization [32]: > 50 µg/mL | IC50 (µg/mL), pseudovirus neutralization [33]: > 50 µg/mL | IC50 (µg/mL), pseudovirus neutralization [34]: > 50 µg/mL | IC50 (µg/mL), pseudovirus neutralization [35]: 0.007 µg/mL | IC50 (µg/mL), pseudovirus neutralization [36]: > 50 µg/mL | IC50 (µg/mL), pseudovirus neutralization [37]: > 50 µg/mL | IC50 (µg/mL), pseudovirus neutralization [38]: > 50 µg/mL | IC50 (µg/mL), pseudovirus neutralization [39]: > 50 µg/mL | IC50 (µg/mL), pseudovirus neutralization [40]: 34.4 µg/mL | neutralization IC50 (pseudovirus) [41]: 0.006 µg/mL | neutralization IC50 (pseudovirus) [42]: 0.0055 µg/mL | neutralization IC50 (pseudovirus) [43]: 0.0106 µg/mL | neutralization IC50 (pseudovirus) [44]: > 10 µg/mL | neutralization IC50 (pseudovirus) [45]: 5.78 µg/mL | neutralization IC50 (pseudovirus) [46]: 0.0382 µg/mL | neutralization IC50 (pseudovirus) [47]: > 10 µg/mL | IC50 (µg/mL), pseudovirus neutralization [48]: > 50 µg/mL | EC50 (WT JR-FL gp120 (HIV-1)): 0.2 µg/mL

5141_B17 (PGT-126) (antibody)
neutralization IC50 (pseudovirus) [1]: 0.0046 µg/mL | neutralization IC50 (pseudovirus) [2]: 0.115 µg/mL | neutralization IC50 (pseudovirus) [3]: 0.0181 µg/mL | neutralization IC50 (pseudovirus) [4]: > 10 µg/mL | neutralization IC50 (pseudovirus) [5]: 0.0194 µg/mL | neutralization IC50 (pseudovirus) [6]: 0.0091 µg/mL | neutralization IC50 (pseudovirus) [7]: 0.0249 µg/mL | neutralization IC50 (pseudovirus) [8]: > 10 µg/mL | neutralization IC50 [9]: > 50 µg/mL | neutralization IC50 [10]: 0.011 µg/mL | neutralization IC50 [11]: 0.033 µg/mL | neutralization IC50 [12]: 0.298 µg/mL | neutralization IC50 [13]: 0.014 µg/mL | neutralization IC50 [14]: 25.3 µg/mL | neutralization IC50 [15]: 2.12 µg/mL | neutralization IC50 [16]: > 50 µg/mL | neutralization IC50 [17]: > 50 µg/mL | neutralization IC50 [18]: 0.111 µg/mL | neutralization IC50 [19]: > 50 µg/mL | neutralization IC50 [20]: > 50 µg/mL | neutralization IC50 [21]: 3.14 µg/mL | neutralization IC50 [22]: 0.17 µg/mL | neutralization IC50 [23]: 0.006 µg/mL | neutralization IC50 [24]: > 50 µg/mL | neutralization IC50 [25]: 0.96 µg/mL | neutralization IC50 [26]: 0.065 µg/mL | neutralization IC50 [27]: > 50 µg/mL | neutralization IC50 [28]: 0.786 µg/mL | IC50 (µg/mL), pseudovirus neutralization [29]: 0.038 µg/mL | IC50 (µg/mL), pseudovirus neutralization [30]: > 50 µg/mL | IC50 (µg/mL), pseudovirus neutralization [31]: > 50 µg/mL | IC50 (µg/mL), pseudovirus neutralization [32]: > 50 µg/mL | IC50 (µg/mL), pseudovirus neutralization [33]: 7.32 µg/mL | IC50 (µg/mL), pseudovirus neutralization [34]: 48.8 µg/mL | IC50 (µg/mL), pseudovirus neutralization [35]: 0.009 µg/mL | IC50 (µg/mL), pseudovirus neutralization [36]: > 50 µg/mL | IC50 (µg/mL), pseudovirus neutralization [37]: > 50 µg/mL | IC50 (µg/mL), pseudovirus neutralization [38]: > 50 µg/mL | IC50 (µg/mL), pseudovirus neutralization [39]: 0.018 µg/mL | IC50 (µg/mL), pseudovirus neutralization [40]: 0.875 µg/mL | neutralization IC50 (pseudovirus) [41]: 0.0061 µg/mL | neutralization IC50 (pseudovirus) [42]: 0.0033 µg/mL | neutralization IC50 (pseudovirus) [43]: 0.0076 µg/mL | neutralization IC50 (pseudovirus) [44]: 1.14 µg/mL | neutralization IC50 (pseudovirus) [45]: 0.283 µg/mL | neutralization IC50 (pseudovirus) [46]: 0.0093 µg/mL | neutralization IC50 (pseudovirus) [47]: > 10 µg/mL | IC50 (µg/mL), pseudovirus neutralization [48]: > 50 µg/mL | EC50 (WT JR-FL gp120 (HIV-1)): 0.1 µg/mL
